# Measured values reported in the supplement of paper PMC7877785.
# ± gives the uncertainty stated by the source.
# Test: self-splicing fitness, log relative to wild type (ln ratio); higher = more splicing; Tetrahymena group I intron in knt gene, E. coli kanamycin selection, DiMSum; sequences stand for … in CUCUCU…GGAGGGAAAAGUUAUCAGGCAUGCACCUGGUAGCUAGUCUUUAAACCAAUAGAUUGCAUCGGUUUAAAAGGCAAGACCGUCAAAUUGCGGGAAAGGGGUCAACAGCCGUUCAGUACCAAGUCUCAGGGGAAACUUUGAGAUGGCCUUGCAAAGGGUAUGGUAAUAAGCUGACGGACAUGGUCCUAACCACGCAGCCAAGUCCUAAGUCAACAGAUCUUCUGUUGAUAUGGAUGCAGUUCACAGACUAAAUGUCGGUCGGGGAAGAUGUAUUCUUCUCAUAAGAUAUAGUCGGACCUCUCCUUAAUGGGAGCUAGCGGAUGAAGUGAUGCAACACUGGAGCCGCUGGGAACUAAUUUGUAUGCGAAAGUAUAUUGAUUAGUUUUGGAGUACUCGUGGUCG
# Outline: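 Library with all eight P1ex-region intron nucleotides randomised, intron inside the knt kanamycin-resistance gene on pET-22b(+), in E. coli BL21(DE3). Cells grew overnight at 37°C or 30°C on LB agar with or without 25 μg/mL kanamycin (plus 100 μg/mL carbenicillin, 50 μM IPTG, 0.2% rhamnose), in six replicate transformations. Pooled colonies were amplicon-sequenced on Illumina HiSeq 2500. DiMSum fitness is the error-weighted combination of wild-type-normalised replicate fold changes, kanamycin versus none.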
Sequence,self-splicing fitness (ln) (30 °C),self-splicing fitness (ln) (37 °C)
UAAAAGCAAUAUUACGUCUC,-3.48 ± 0.17,-3 ± 0.17
ACCGAGCAAUAUUACGAUUC,-3.37 ± 0.25,-3.31 ± 0.31
AGCUAGCAAUAUUACGUCCA,-1.52 ± 0.12,-0.378 ± 0.11
CCCCAGCAAUAUUACGAGCC,-3.75 ± 0.26,-2.54 ± 0.25
AUCAAGCAAUAUUACGGGUG,-1.4 ± 0.088,-0.416 ± 0.087
GGCUAGCAAUAUUACGAAAG,-2.44 ± 0.26,-2.4 ± 0.44
UGAGAGCAAUAUUACGCUUA,,-2.05 ± 0.3
UAAUAGCAAUAUUACGUAGC,-2.63 ± 0.35,-2.19 ± 0.26
UGGAAGCAAUAUUACGUUUC,-2.56 ± 0.24,-2.82 ± 0.38
CCUGAGCAAUAUUACGACAC,-2.49 ± 0.49,-2.19 ± 0.28
CCUGAGCAAUAUUACGAAUC,-3.69 ± 0.33,-2.34 ± 0.43
GCCCAGCAAUAUUACGAGCC,-3.1 ± 0.24,-0.756 ± 0.15
CCACAGCAAUAUUACGUGUU,-3.75 ± 0.1,-3.15 ± 0.14
GCAUAGCAAUAUUACGGUGU,-4.14 ± 0.23,-2.47 ± 0.2
CGCAAGCAAUAUUACGGUGA,-0.78 ± 0.084,-0.469 ± 0.091
UUCUAGCAAUAUUACGACUC,-3.11 ± 0.31,-0.392 ± 0.14
UUAGAGCAAUAUUACGGUGA,-0.868 ± 0.067,-0.176 ± 0.08

Sequence,self-splicing fitness (ln) (30 °C),self-splicing fitness (ln) (37 °C)
UGAAAGCAAUAUUACGAUGA,-0.217 ± 0.088,-0.415 ± 0.1
GGACAGCAAUAUUACGCGUU,-3.68 ± 0.16,-2.62 ± 0.2
AACAAGCAAUAUUACGAUAG,-3.24 ± 0.17,-2.24 ± 0.18
GGUAAGCAAUAUUACGAUCC,,-1.74 ± 0.42
CAAGAGCAAUAUUACGAGUU,-2.81 ± 0.13,-2.82 ± 0.18
AAAAAGCAAUAUUACGAAGU,-2.08 ± 0.13,-0.998 ± 0.15
GGCAAGCAAUAUUACGAGCU,-2.69 ± 0.18,-1.67 ± 0.23
CUUUAGCAAUAUUACGGCGC,-2.73 ± 0.37,
UCAUAGCAAUAUUACGCUUG,-1.97 ± 0.15,-2 ± 0.19
CUGAAGCAAUAUUACGAUUG,0.168 ± 0.099,-0.000234 ± 0.12
GUUGAGCAAUAUUACGCAUA,-2.36 ± 0.24,-1.1 ± 0.17
AGUCAGCAAUAUUACGUGGG,-4.29 ± 0.21,-2.44 ± 0.14
GGUGAGCAAUAUUACGGUGA,-2.81 ± 0.23,-1.28 ± 0.21
CCGAAGCAAUAUUACGCUCG,-1.57 ± 0.18,-1.53 ± 0.21
UCUUAGCAAUAUUACGACGC,-2.07 ± 0.28,-1.02 ± 0.23
GAGGAGCAAUAUUACGGAAU,-3.82 ± 0.37,
UUGUAGCAAUAUUACGUUCU,-2.42 ± 0.15,-1.69 ± 0.2
